Source: patent publication US20250002610A1 (Genmab, published 2025)

Key:
[1] = target: T1, human DR4 (Death Receptor 4), cell surface expressed on human tumor cell lines (human, UniProt O00220 24-468); assay: flow cytometry, PANC-1 cells, n = 1
T1 construct: also called TNFRSF10A; TRAIL-R1
T1 sequence: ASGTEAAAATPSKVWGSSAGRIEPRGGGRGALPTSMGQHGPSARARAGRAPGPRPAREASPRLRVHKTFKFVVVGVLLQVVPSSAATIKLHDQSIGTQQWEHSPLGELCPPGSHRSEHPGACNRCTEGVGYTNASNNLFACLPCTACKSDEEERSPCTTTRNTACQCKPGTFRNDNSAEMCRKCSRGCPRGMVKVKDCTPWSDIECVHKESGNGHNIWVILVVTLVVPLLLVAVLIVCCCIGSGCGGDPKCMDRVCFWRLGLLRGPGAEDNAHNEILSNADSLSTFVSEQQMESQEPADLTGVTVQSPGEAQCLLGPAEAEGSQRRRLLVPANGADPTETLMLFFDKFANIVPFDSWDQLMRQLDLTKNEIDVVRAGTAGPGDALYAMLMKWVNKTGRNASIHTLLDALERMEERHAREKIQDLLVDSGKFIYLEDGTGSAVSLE

[2] = target: T1, human DR4 (Death Receptor 4), cell …; assay: flow cytometry, PANC-1 cells, average ± SEM
[3] = target: T2, human FAPα (Fibroblast activation protein alpha), cell surface expressed (human, UniProt Q12884 1-760); assay: flow cytometry, Expi293F cells expressing human FAPα, average ± SEM
T2 construct: Endogenous on human lung fibroblasts and CAFs
T2 sequence: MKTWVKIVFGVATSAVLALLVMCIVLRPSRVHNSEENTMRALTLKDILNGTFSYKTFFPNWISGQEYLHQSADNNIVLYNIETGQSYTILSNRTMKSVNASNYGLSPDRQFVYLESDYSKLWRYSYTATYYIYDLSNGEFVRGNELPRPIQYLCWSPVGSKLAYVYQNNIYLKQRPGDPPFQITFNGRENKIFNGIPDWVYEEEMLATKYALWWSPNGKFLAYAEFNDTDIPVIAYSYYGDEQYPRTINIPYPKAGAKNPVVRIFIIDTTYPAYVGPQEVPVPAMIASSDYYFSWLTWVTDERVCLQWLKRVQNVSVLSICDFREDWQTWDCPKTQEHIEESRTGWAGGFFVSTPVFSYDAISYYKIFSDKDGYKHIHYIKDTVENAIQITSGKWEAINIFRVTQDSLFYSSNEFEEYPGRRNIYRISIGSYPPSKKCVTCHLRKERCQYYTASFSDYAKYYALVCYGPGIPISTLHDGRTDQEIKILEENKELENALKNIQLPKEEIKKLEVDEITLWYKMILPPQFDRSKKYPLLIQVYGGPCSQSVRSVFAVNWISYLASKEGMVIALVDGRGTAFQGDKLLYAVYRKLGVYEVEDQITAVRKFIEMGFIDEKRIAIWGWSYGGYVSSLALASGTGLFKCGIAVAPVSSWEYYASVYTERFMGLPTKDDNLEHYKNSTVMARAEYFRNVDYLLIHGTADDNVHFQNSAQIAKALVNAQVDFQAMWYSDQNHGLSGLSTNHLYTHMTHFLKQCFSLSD
Procedure: (§1) Binding of BisG1-FAPα-FERL/DR4-FERR, BisG1-FAPα-FEAL/b12-FEAR and IgG1-FAPα-FERL to FAPα of species commonly used for nonclinical toxicology studies was assessed by flow cytometry using Expi293F cells transiently expressing FAPα from different animal species. IgG1-b12 was included as negative control.
(§2) Expi293F cells expressing recombinant FAPα from various species (human, cynomolgus monkey, dog, pig, rat or mouse) were seeded (20,000 cells/well) in 96-Well round bottom plates (Greiner Bio-one, Cat #650101). Antibody dilutions were prepared using FACS buffer, consisting of PBS (Capricorn Scientific, Cat #PBS-10XA, diluted to 1×PBS in distilled water)+1% BSA (Roche, Cat #10735086001)+0.02% Sodium Azide (Bio-World, Cat #41920044-3). Plates were centrifuged, supernatant was removed, and cells were resuspended in 100 μL of antibody dilutions (concentration range 30-0.00017 μg/mL with three-fold serial dilutions using FACS buffer) of BisG1-FAPα-FERL/DR4-FERR, BisG1-FAPα-FEAL/b12-FEAR, IgG1-FAPα-FERL and IgG1-b12 and incubated for 30 min at 4° C. […] After 30 min incubation at 4° C., cells were washed with FACS buffer and resuspended in FACS buffer supplemented with TO-PRO-3 Iodide viability marker (Invitrogen, Cat #T3605, diluted 1:4,000). Antibody binding to viable cells (gMFI of PE on TO-PRO-3 negative cells) was analyzed by flow cytometry on a FACS Celesta and FACS_Diva software (first two experiments) or iQue® 3 and FlowJo software (last experiment). gMFI was determined and visualized using GraphPad Prism. Binding curves were analyzed using nonlinear regression analysis. The concentration (pg/mL) at which 50% of the maximal effect was observed (EC₅₀) was derived from the fitted curves.

[4] = target: T3, dog FAPα on Expi293F cells (dog (Canis familiaris), UniProt A5D7B7 1-760 (bovine entry)); assay: flow cytometry on Expi293F cells transiently expressing dog FAPα, gMFI PE
T3 chain: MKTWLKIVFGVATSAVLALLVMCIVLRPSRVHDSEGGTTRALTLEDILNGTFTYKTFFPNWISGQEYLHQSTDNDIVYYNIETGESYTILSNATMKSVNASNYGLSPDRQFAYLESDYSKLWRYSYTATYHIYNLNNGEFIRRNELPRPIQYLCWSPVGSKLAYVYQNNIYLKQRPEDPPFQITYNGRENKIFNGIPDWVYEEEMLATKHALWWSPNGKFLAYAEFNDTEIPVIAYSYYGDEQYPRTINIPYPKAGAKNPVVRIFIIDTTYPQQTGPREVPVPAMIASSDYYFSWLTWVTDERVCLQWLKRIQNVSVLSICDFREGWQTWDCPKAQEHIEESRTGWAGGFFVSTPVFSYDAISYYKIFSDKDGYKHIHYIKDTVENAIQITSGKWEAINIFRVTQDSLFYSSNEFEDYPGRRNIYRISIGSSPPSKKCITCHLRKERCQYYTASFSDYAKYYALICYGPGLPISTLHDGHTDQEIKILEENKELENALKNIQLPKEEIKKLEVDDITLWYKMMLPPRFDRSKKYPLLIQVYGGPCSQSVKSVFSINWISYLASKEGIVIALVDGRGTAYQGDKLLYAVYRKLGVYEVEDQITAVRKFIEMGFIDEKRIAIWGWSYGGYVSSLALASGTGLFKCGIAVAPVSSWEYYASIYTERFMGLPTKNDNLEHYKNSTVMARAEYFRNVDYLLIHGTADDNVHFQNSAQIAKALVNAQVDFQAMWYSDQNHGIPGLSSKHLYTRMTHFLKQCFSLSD
Procedure: as §1, §2

EC50 [3]: 0.24 µg/mL
binding result [4]: binds
B1: BisG1-FAPα-FERL/DR4-FERR (bispecific antibody, human IgG1, kappa, lambda)
heavy 1: EVQLLESGGGLVQPGGSPRLSCEASGFTFSSYALSWVRQAPGKGLEWVSAISGSGGGRYYADSVKGRFTISRDNSKNTLFLQMNSLRAEDTAVYYCAKEGYSSSGTYWDHWGQGTLVTVSSASTKGPSVFPLAPSSKSTSGGTAALGCLVKDYFPEPVTVSWNSGALTSGVHTFPAVLQSSGLYSLSSVVTVPSSSLGTQTYICNVNHKPSNTKVDKRVEPKSCDKTHTCPPCPAPEFERGPSVFLFPPKPKDTLMISRTPEVTCVVVDVSHEDPEVKFNWYVDGVEVHNAKTKPREEQYNSTYRVVSVLTVLHQDWLNGKEYKCKVSNKALPAPIEKTISKAKGQPREPQVYTLPPSREEMTKNQVSLTCLVKGFYPSDIAVEWESNGQPENNYKTTPPVLDSDGSFLLYSKLTVDKSRWQQGNVFSCSVMHEALHNHYTQKSLSLSPG
light 1: AIQMTQSPSSVSASVGDRVTITCRASQGVSSWLAWYQQKPGRAPKLLIYVASTLQSGVPSRFSGSGSGTDFTLTINSLQPEDFATYYCQQANSFPPTFGQGTRLEMKRTVAAPSVFIFPPSDEQLKSGTASVVCLLNNFYPREAKVQWKVDNALQSGNSQESVTEQDSKDSTYSLSSTLTLSKADYEKHKVYACEVTHQGLSSPVTKSFNRGEC
heavy 2: QVQLQESGPGLVKPSGTLSLTCAVSGGSISSYSWWSWIRQPPGKGLEWIGELYHSGSTNYNPSLKSRVTISVDKSKNQFSLKLRSVTAADTAVYYCVRGVATIDYWGQGTLVTVSSASTKGPSVFPLAPSSKSTSGGTAALGCLVKDYFPEPVTVSWNSGALTSGVHTFPAVLQSSGLYSLSSVVTVPSSSLGTQTYICNVNHKPSNTKVDKRVEPKSCDKTHTCPPCPAPEFERGPSVFLFPPKPKDTLMISRTPEVTCVVVDVSHEDPEVKFNWYVDGVEVHNAKTKPREEQYNSTYRVVSVLTVLHQDWLNGKEYKCKVSNKALPAPIEKTISKAKGQPREPQVYTLPPSREEMTKNQVSLTCLVKGFYPSDIAVEWESNGQPENNYKTTPPVLDSDGSFFLYSRLTVDKSRWQQGNVFSCSVMHEALHNHYTQKSLSLSPG
light 2: QSALTQPPSASGSPGQSVTISCTGTSSDVGGYNFVSWYQQDPGKAPKLLIYEVTKRPSGVPDRFSGSKSGNTASLTVSGLQAEDEADYYCSSYAGSNNVMFGGGTKLTVLGQPKAAPSVTLFPPSSEELQANKATLVCLISDFYPGAVTVAWKADSSPVKAGVETTTPSKQSNNKYAASSYLSLTPEQWKSHRSYSCQVTHEGSTVEKTVAPTECS
notes: Human IgG1 bispecific made by controlled Fab-arm exchange of IgG1-FAPα-FERL and IgG1-DR4-FERR; monovalent for FAPα and for DR4; also called GEN1057
EC50 [1]: 1.8 µg/mL
EC50 [2]: 1.7 µg/mL
